The assay addresses Human FcRn (hFcRn), soluble α-chain/β2m heterodimer, P55899;P61769. Description: BLI (in vitro BLI-based FcRn platform). As to conditions: chain shown with the change;, read off a plot.

B1: CDA1 (actoxumab), fully human IgG1 mAb CDA (with HCV VH CDRs): VH CDR1-3 of CDA1 replaced by VH CDRs of HCV1; residues not printed (protein)
chain 1: QVQLVESGGGVVQPGRSLRLSCAASGFTFNNYGMHWVRQAPGKGLEWVALIWFDENNKDYTDSVKGRFTISRDNSKNTLYLQMNSLRAEDTAVYYCARDISLVRDAFIYFDFWGQGTVVTVSS
chain 2: DIQMTQSPSSVSASVGDRVTITCRASQGISSWLAWYQHKPGKAPKLLIYAASSLQSGVPSRFSGSGSGTDFTLTISSLQPEDFATYYCQQANSFPWTFGQGTKVEIK
For B1, the other: Predicted Human t1/2, β (parent: est. 690) is 15 days.

B2: HCV1, fully human IgG1 mAb HCV (with CDA VH CDRs): VH CDR1-3 of HCV1 replaced by VH CDRs of CDA1; residues not printed (protein)
chain 1: EVQLLESGGGVVQPGRSLRLSCTASGFSFSNYGMHWVRQTPGKGLEWLAVIWYDGSNEYYADSVRGRFTISRDNSKNTLFLQMNSLKTEDTAMYYCARWGMVRGVIDVFDIWGLGTLVTVSS
chain 2: ELTLTQSPATLSLSPGERATLSCRASQSVSSYLAWYQQKPGQAPRLLIYDASNRATGIPARFSGSGSGTDFTLTISSLEPEDFAVYYCQQRSNWITFGQGTRLEIK
With B2, for the setting “parent: est. 270”, the other: Predicted Human t1/2, β is 22.9 days.

B3: HCV1, fully human IgG1 mAb HCV (with CDB Vk CDRs): Vk CDR1-3 of HCV1 replaced by Vk CDRs of CDB1; residues not printed (protein)
chain 1: EVQLLESGGGVVQPGRSLRLSCTASGFTFNNYGMHWVRQTPGKGLEWLAVIWFDENNKYYADSVRGRFTISRDNSKNTLFLQMNSLKTEDTAMYYCARDISLVRDAFIYFDFWGLGTLVTVSS
chain 2: ELTLTQSPATLSLSPGERATLSCRASQSVSSSYLAWYQQKPGQAPRLLIYGASNRATGIPARFSGSGSGTDFTLTISSLEPEDFAVYYCQQYGSSTWTFGQGTRLEIK
As to B3, under “parent: est. 270”, the other: Predicted Human t1/2, β is 13.3 days.

These data come from publication PMC4622054.
